Laboratory results: article PMC12607626, “Separation of Pseudomonas aeruginosa type IV pilus-dependent twitching motility and surface-sensing responses” (mBio, 2025)

Target: the molecule itself
Assay: crystal structure; X-ray, 4.5 Å; sitting-drop vapour diffusion at 20 °C; 12.5 µM ATP in the final buffer, no nucleotide density; four protomers in the asymmetric unit, two nearly identical C3 hexamers identified from the crystal packing

B1: PilU (Pseudomonas aeruginosa type IVa pilus retraction ATPase paralog of PilT) (enzyme)
chain: MEFEKLLRLMVEKGGSDLFITAGVPPSMKVNGRVMPVTKTPLSPEQTRETVLGVMNEQQRRDFAENHECNFAISARGIGRFRVSAFYQRNLVGMVLRRIETNIPTLEELKLPEILKKLALTKRGLVIFVGATGTGKSTSLAAMIGYRNKNSTGHIISIEDPIEYIHQHQGCIVTQREVGLDTDSFEVALKNTLRQAPDVIMIGEVRSRETMDHAVAFAETGHLCLATLHANNANQALERIIHFFPADRHGQVWMDLSLNLKAIVAQQLVPTPDGKGRRAVIEVLLNTPLAADLIRKGEVHELKPLMKRSTEQGMQTFDQALYQLYTQGEITYEDALAHADSANDLRLMIKLGSESDADHLSSLTQGLSLEITDDDPAGRRFR
notes: PilU, P. aeruginosa; the pilU gene was amplified by PCR and cloned into pET28a; the 30 C-terminal residues were not resolved in the crystal; also called PilU hexamer; source: E. coli BL21 (DE3), pET28a, purified (HiTrap Chelating HP, size-exclusion chromatography)
stoichiometry N: 6
